The values that follow come from the DeepSol protein solubility set.

The nature of the data set: soluble on expression in E. coli; label from the status in PepcDB or PDB records.
For “FSSALTSKDAARLADETDNIAEALRAAETEGVALQDMLQAYLPANGMVRVVNGDQKAVMTITKEKAYKDFPLSFHSGETADVRKPDGKLFAEAAVPVIWTDGQVVSLQLVERLENTEESLFLLK”, the “soluble on expression in E. coli” value is “not soluble”.
Regarding “MEPTGLMVAAPTASLPEAIGGERNWDYRFTWIRDTAYVIEALSSIGYKYEATEFLYDMMDMITRDNRIRTIYSIDDSNDLEERIIDYEGYRGSRPVRIGNKAVDQLQIDQYGSIVRAIHSMAKAGGIVNSYLWDFVEQVMAKIEYLWKYPDSSIWEFRTEPKQYVYSKVMSWAAFDSAISMAKDLGLSAPIKQWKSIQDEIKKEVLEKGFDTDTNSFVQYYGSKNIDAALLRLPILGFIPANDEKFLGTLSRIEKELMVDGYLFKRYREDDGLKGDEGSFLMLTFWYIEDLILMKRLKKAREVLESVLEKANHLGLYSEEIDEKSGDFLGNFPQALSHLGVIRVAPKLEEALLKRTSKINSLEHHHHHH”, the “soluble on expression in E. coli” value is “not soluble”.
For “MAHHHHHHMQPFQFVPQVDNKVNVVSMQPFQMYVPNHNMMVPQACPENIQQYHHQPIFFEPLPPIYVKNQLLPSPILVQMPTTVVVQNESQPAMVLSQPPSNIVVKNNPPTSVFVKQSNPNVVVKNEAPPNYVQSVEACQEGVVADMSRPMMTTLNKNIL” the value was “not soluble”; for “MSKSEEKQELPLETSPYTKYEDIEDYKKNAYGTSGHQDVKPGHGGGTTDAPTPSGDAAPSAIDSANQKAKK”, “soluble”; for “MSLARQNRFDRTSFQTQIIDLSHDGRGVARPHGEGDKVTFVTGALPGEVVIVEPVARNRHFDEARVVEVLQASPQRVIPRCSHFGVCSGCVLQHLAEDAQVVSKQRVLLESLERIGRVSPERVLPALAAESWGYRRKGRFSVRWVEKKGRTLVGFREHDPRFVADVSVCHTVVPQVGEKIALLATLLNSLDGRRDVPQIEFIAGDAVVALTVRHLQPLSEADRLALIEFGKEHGIAIFLQSGGVESVRLLWPDEVLLAFRLKPWDVEFVFRPLDFIQINGGLNEKMIAHALDLLGAGFGERVLDLFCGLGNFTLPLARTVDEVVGVEGDIGLVERARENARRNGLGNAEFFVADLTRDQRDAPWMRQGFDKLLLDPPRSGAIEVLKQLPLKMFERIVYVSCHPGSLARDADFLVNEQGFVLRAVGAMDMFPHTAHVESIAVFDRCEGHHHHHH”, “soluble”.
Under “MGSDKIHHHHHHMKVLLYLEAEEYLKKSGIGRAIKHQEKALQIAGIDYTTNPTDDFDLVHMNTYGIRSWLLMSKAKKTGKKVIMHGHSTEEDFRNSFIGSNLVSPLFKWYLCRFYQKADAIITPTDYSKQLIKAYGIKKPIFVLSNGIDLSRYQRSEKKESAFRHYFHLSKDDKVVMGAGLYFMRKGIDQFVEVAAKMPDIRFIWFGETNKWVIPRKVRQIVTKQHPSNVTFAGYIKGDVYEGAMSASDAFFFPSREETEGIVVLEALASHQHVVLRDIPVYHGWVTEDSVELATDVDGFVEKLDKVLSGKSDKIKEGYHVAESRSIERIAHELASVYQKVMEL” stands “not soluble”; under “MTRPVTLSEPHFSQHTLNKYASLMAQGNGYLGLRASHEEDYTRQTRGMYLAGLYHRAGKGEINELVNLPDILGMEIAINGEVFSLSREAWQRELDFASGELRRSVVWRTSNGAGYTIASRRFVSADQLPLIALEITIMPLDADASVLISTGIDATQTNHGRQHLDETQVRVFGQHLMQGIYTTQDGRSDVAISCCCQVSGDVQQCYTAKERRLLQHTSTQLHAGETVTLQKLVWIDWRDDRQAALDEWGSVSLRQLEMCAQQSYDQHLAASTENWRQWWQKRRITVNGGDAHDQQALDYALYHLRIMTPAHGERSSIAAKGLTGEGYKGHVFWDTEVFLLPFHLFSDPTVARSLLRYRWHNLPGAQEKARRNGWQGALFPWESARSGEEETPEFAAINIRTGLRQKVASAQAEHHLVADIAWAVIQYWQTTGDESFIAHEGMALLLETAKFWISRAVRVNDRLEIHDVIGPDEYTEHVNNNAFTSYMVYYNVQQALSIARQFGCSDDAFIHRAEMFLKELRLPEIQPDGVLPQDDSFMTKPAINLAKYKAAAGKQTILLDYSRAEVNEMQILKQADVVMLNYMLPEQFSSASCLANLQFYEPRTIHDSSLSKAIHGIVAARCGLLTQSYQFWREGTEIDLGADPHSCDDGIHAAATGAIWLGAIQGFAGVSVRDGELHLNPALLEQWQQLSFPLFWQGCELQVTLDAQRIAIRTSAPVSLRLDGQLISVAEESVFCLGDFILPFNGTATTHQEDE”, “not soluble”; under “MAHHHHHHMKTLAKKTLQGGVSGKCGSQIIIAHGLLGNSTNWMSVGRRLAAHDGVRGRLEEIHMLDMRNHGESPHFNAHTNATMASDIEHFVLQQQRQWQSRAGAEGDGGIVLIGHSMGGFAVMGSMLRRANETSLLLQSGVEELEQRCKRGDYYGWCDEQGNAAEMRAVNRAMGLPETQPLYDILYDCKGDNVARPPRVKAVVIVDITPSTALGTHRQHGQNSSETLDAMVAADLSRVHSFGDGNAELERVGVSNKAMRDFLLTNLRLDPRTKEATWRCNLPVLRADYNSIALGVSGWFLSASEKVSRDRGGELVAPLRCSLPTLFVFGQNSPYNTPEDRRLIPRFFSNAIEVEVEGAGHFVHYEKMQEFVNVVVPFLTEYL”, “not soluble”.
For “MSLSSGEHEASRVLRERDYRWEGTEEEAYKAEGTHFSGARRQTLVGRPAGQEAPAFETRYFEVEPGGYTTLERHEHTHVVMVVRGHAEVVLDDRVEPLTPLDCVYIAPHAWHQIHATGANEPLGFLCIVDSDRDRPQRPDADDLARMCADPAVARRIRTEGHHHHHH”, the “soluble on expression in E. coli” value is listed as “soluble”.
Under “MKPLLDVLMILDAIEKEGSFAAASAKLYKTPSALSYTVHKLESDLNIQLLDRSGHRAKFTRTGKMLLEKGREVLHTVRELEKQAIKLHEGWENELVIGVDDTFPFSLLAPLIEAFYQHHSVTRLKFINGVLGGSWDALTQGRADIIVGAMHEPPSSSEFGFSRLGDLEQVFAVAPHHPLAQEEEPLNRRIIKRYRAIVVGDTAQAGASTASQLLDEQEAITVFDFKTKLELQISGLGCGYLPRYLAQRFLDSGALIEKKVVAQTLFEPVWIGWNEQTAGLASGWWRDEILANSAIAGVYAKSDDGKSAIQRKIIMTSLSFSCHFPPI” stands “not soluble”; under “MSVWASRLKAMGLLENLLNRYTPRTSGTPVFAVIDTGTTGFNKRYDHIIELAAVRADAYFKPVDSWHALLNPDTNAVSTTRGTPPPTSALNPAVGVTRSEAS”, “not soluble”; under “MEIVYKPLDIRNEEQFASIKKLIDADLSEPYSIYVYRYFLNQWPELTYIAVDNKSGTPNIPIGCIVCKMDPHRNVRLRGYIGMLAVESTYRGHGIAKKLVEIAIDKMQREHCDEIMLETEVENSAALNLYEGMGFIRMKRMFRYYLNEGDAFKLILPLTEKSCTRSTFLMHGRLAT”, “not soluble”.
For “MIIQIEEYFIGMIFKGNQLVRNTIPLRREEIFNFMDGEVVSNPEDEHLKVAEIILKLYFAEIDDKKVRELISYKLEVPEFTKKVLDIVKDIEFGKTLTYGDIAKKLNTSPRAVGMALKRNPLPLIIPCHRVVAKNSLGGYSYGLDKKKFILERERLNMVSFKFNKVY”, the “soluble on expression in E. coli” value was “soluble”.
Under “SWQTYVDTNLVGTGAVTQAAIIGHDGNTWATSAGFAVSPANGAALANAFKDATAIRSNGFELAGTRYVTIRADDRSVYGKKGSAGVITVKTSKAILIGVYNEKIQPGTAANVVEKLADYLIGQGF” stands “soluble”; under “MAGDPMDKNKLFFIETWGCQMNAEDSEKLAGMLKEMKYEATDNREDADLIIFNTCCVRENAELKVYGNLGTLKKLKDKKPNLIITVCGCMMQQRDMAEHIKKRFPFVDIVMGTHNTQMFPQYLKKVENERTSVVEIWDKEEGIVEGMPIYRSYDMKAFVTIMYGCNNFCTYCIVPYVRGRERSRKPEDIENEIKELVKKGYKEITLLGQNVNSYGKSLDEEMNFALLLRRLNNIEGLLRIRFMTSHPKDLTDDVIAAIADCDKVCEHIHLPVQSGSTTILNKMNRNYTREDYINLVNKIKSGIKNVAITTDIIVGFPGETEEDFEDTLSLVKEVEYDSAFTFLYSIREGTPAAKYENQIPDEVKHKRFNKLLEAVNLISEKKNKEYEGKIVEILVEGKSKNDGSKLMGRTRTGKLVNFEGLESSIGKLINVKITKAQAFSLVGEEVLEHHHHHH”, “not soluble”.
